Substitutions are numbered along the chain they refer to. Names may count otherwise.
B1: 28G_1-GN (UT28K S55G) (antibody, V domains shown)
VH: QMQLVQSGPEVKKPGTSVKVSCKASGFTFSISAVQWVRQARGQRLEWIGWIVVGGGNTNYAQKFQERVTITRDMSTSTAYMELSSLRFEDTAVYYCAAPYCGGDCSDGFDIWGQGTMVTVSS
VL: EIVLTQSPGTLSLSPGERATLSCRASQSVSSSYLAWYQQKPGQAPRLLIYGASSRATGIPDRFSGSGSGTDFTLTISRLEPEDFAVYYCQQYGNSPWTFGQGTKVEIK
B2: 28G_5-SG (UT28K N57G) (antibody, V domains shown)
VH: B1 VH with G55S, N57G
VL: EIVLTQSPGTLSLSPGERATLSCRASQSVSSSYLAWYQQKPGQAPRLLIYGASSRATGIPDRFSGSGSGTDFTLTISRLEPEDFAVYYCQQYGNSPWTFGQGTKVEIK
B3: 28G_3-SR (UT28K N57R) (antibody, V domains shown)
VH: B1 VH with G55S, N57R
VL: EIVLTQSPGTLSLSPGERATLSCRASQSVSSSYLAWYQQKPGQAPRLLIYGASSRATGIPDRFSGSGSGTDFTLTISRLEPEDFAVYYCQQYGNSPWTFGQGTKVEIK
B4: 4_12-SS/WT (UT28K N57S) (antibody, V domains shown)
VH: B1 VH with G55S, N57S
VL: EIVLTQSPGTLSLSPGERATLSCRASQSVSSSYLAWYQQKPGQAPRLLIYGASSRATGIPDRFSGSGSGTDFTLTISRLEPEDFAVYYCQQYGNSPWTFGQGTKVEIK
B5: 28G_6-GR (UT28K S55G, N57R) (antibody, V domains shown)
VH: B1 VH with N57R
VL: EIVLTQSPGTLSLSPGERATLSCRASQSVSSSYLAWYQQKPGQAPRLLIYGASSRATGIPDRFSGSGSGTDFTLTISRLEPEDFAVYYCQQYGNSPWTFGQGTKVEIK
B6: 28G_8-GG (UT28K S55G, N57G) (antibody, V domains shown)
VH: B1 VH with N57G
VL: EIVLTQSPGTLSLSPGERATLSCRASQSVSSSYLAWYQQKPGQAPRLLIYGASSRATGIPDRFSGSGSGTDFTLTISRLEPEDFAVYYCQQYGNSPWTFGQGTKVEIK
B7: UT28K N57E (antibody, V domains shown)
VH: B1 VH with G55S, N57E
VL: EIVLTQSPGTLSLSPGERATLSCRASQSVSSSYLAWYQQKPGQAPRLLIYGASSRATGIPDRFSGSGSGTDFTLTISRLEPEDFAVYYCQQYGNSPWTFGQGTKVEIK

Experiments:
[1] = biological target: T1, SARS-CoV-2 RBD, Omicron strain (B.1.1.529 (BA.1)) (SARS-CoV-2 Omicron strain B.1.1.529 …, UniProt P0DTC2 319-541); assay: ELISA of culture supernatant on Omicron RBD (Fig. 2-1)
T1 construct: also called Omicron-derived RBD; RBD protein (Omicron type)

[2] = biological target: T1, SARS-CoV-2 RBD, Omicron strain …; assay: ELISA on Omicron RBD (supernatant, Fig. 2-1; 300 ng/ml, Fig. 2-2)
[3] = biological target: T1, SARS-CoV-2 RBD, Omicron strain …; assay: ELISA on Omicron RBD, 300 ng/ml antibody (Fig. 2-2)

| Binder | binding result [1] | binding result [2] | other results |
| --- | --- | --- | --- |
| B1 | no binding | – | – |
| B2 | – | no binding (tested: 300 ng/ml (Fig. 2-2)) | – |
| B3 | – | no binding (tested: 300 ng/ml (Fig. 2-2)) | – |
| B4 | – | no binding (tested: 300 ng/ml (Fig. 2-2)) | – |
| B5 | no binding | – | – |
| B6 | no binding | – | – |
| B7 | – | – | binding result [3]: no binding (tested: 300 ng/ml (Fig. 2-2)) |

From JP2024044204A (dated 2024)
